Source: patent publication US7208301B2, “Method for producing 6-0-α-D-glucopyranosyl-D-sorbitol” (Südzucker Aktiengesellschaft Mannheim/Ochsenfurt, priority 1999, dated 2007)

Assay: Storage stability of purified SDH
Type: physicochemical
Experimental: In another preferred embodiment the temperature of the aqueous reaction solution is 20° C. to 40° C., especially 25° C., in the enzymatic conversion. At temperatures of 25° C. the purified SDH has stability of about a week. Thus, temperatures in this range are well-suited for conducting long-term enzyme-catalyzed processes.
The purified SDH can be stored for about 8 months at −30° C. and the SDH is stable for about 30 days at +4° C.

B1: SDH: sorbitol dehydrogenase of Gluconobacter suboxidans DSM 2003, 262 amino acids (SEQ ID No. 1), purified per Example 1 (protein)
chain: MSKKFNGKVCLVTGAGGNIGLATALRLAEEGTAIALLDMNREALEKAEASVREKGVEARSYVCDVTSEEAVIGTVDSVVRDFGKIDFLFNNAGYQGAFAPVQDYPSDDFARVLTINVTGAFHVLKAVSRQMITQNYGRIVNTASMAGVKGPPNMAAYGASKGAIIALTETAALDLAPYNIRVNAISPGYMGPGFMWERQVELQAKVGSQYFSTDPKVVAQQMIGSVPMRRYGDINEIPGVVAFLLGDDSSFMTGVNLPIAGG
modifications: Gluconobacter suboxydans
stability of purified SDH (at 25° C.): about a week
stability of SDH (at +4° C.): about 30 days
storage time of purified SDH (at −30° C.): about 8 months
